Laboratory results as given in article PMC4631590.

Key:
[1] = biological target: Corynebacterium ammoniagenes fatty-acid synthase type I (C. ammoniagenes); test: SEC; 0.1 M sodium phosphate pH 6.5, 0.1 M NaCl, 5 mM sodium malonate
[2] = biological target: Corynebacterium efficiens fatty-acid synthase type I (FAS B) (C. efficiens) (UniProt Q8FMV7); test: SEC; Superose 6 XK 16/70; 0.1 M bis-tris propane pH 6.8, 0.2 M NaCl, 10% glycerol

stoichiometry N [1] | stoichiometry N [2] | Substance
6 | – | Corynebacterium ammoniagenes fatty-acid synthase type I (enzyme)
– | 6 | Corynebacterium efficiens fatty-acid synthase type I (FAS B) (from UniProt Q8FMV7 1-3022) (enzyme)
